# Laboratory results from PMC3406708.
# Molecular target: integrin α2β1 on human platelets (human (endogenous in platelets)) (UniProt P17301)
# Experiment: flow cytometry on cells
# Sequence of UniProt P17301 (P17301 30-1181, chain 1 of 2): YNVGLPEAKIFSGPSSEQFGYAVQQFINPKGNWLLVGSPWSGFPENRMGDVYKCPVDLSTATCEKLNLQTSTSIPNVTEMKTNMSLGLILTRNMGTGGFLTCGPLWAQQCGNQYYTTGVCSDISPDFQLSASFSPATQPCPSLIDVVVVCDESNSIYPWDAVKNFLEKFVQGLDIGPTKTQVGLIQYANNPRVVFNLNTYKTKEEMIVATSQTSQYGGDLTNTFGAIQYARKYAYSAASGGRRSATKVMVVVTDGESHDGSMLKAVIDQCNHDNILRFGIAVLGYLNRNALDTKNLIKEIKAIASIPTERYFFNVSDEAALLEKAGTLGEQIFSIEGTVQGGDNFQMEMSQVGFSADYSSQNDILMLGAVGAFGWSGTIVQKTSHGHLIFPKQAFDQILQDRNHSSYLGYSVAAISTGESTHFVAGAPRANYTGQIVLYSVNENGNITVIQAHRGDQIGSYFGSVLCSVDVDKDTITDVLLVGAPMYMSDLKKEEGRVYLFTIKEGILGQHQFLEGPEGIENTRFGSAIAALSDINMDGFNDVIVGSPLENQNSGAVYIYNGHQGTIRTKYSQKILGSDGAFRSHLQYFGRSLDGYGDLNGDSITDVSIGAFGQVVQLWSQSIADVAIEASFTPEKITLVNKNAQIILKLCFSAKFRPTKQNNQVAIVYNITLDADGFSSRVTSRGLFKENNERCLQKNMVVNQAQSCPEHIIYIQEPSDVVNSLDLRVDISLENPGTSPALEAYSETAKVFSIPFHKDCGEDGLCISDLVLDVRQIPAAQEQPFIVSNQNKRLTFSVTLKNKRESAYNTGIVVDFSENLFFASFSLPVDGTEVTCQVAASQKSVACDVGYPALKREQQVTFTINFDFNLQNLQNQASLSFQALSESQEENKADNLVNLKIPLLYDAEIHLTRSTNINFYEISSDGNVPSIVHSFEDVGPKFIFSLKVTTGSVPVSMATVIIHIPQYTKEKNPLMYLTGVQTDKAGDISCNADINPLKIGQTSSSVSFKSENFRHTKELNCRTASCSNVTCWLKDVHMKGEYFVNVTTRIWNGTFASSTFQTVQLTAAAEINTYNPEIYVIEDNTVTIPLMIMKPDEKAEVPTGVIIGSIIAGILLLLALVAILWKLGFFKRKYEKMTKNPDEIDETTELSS
# Sequence of UniProt P17301 (P05556 21-798, chain 2 of 2, further chain): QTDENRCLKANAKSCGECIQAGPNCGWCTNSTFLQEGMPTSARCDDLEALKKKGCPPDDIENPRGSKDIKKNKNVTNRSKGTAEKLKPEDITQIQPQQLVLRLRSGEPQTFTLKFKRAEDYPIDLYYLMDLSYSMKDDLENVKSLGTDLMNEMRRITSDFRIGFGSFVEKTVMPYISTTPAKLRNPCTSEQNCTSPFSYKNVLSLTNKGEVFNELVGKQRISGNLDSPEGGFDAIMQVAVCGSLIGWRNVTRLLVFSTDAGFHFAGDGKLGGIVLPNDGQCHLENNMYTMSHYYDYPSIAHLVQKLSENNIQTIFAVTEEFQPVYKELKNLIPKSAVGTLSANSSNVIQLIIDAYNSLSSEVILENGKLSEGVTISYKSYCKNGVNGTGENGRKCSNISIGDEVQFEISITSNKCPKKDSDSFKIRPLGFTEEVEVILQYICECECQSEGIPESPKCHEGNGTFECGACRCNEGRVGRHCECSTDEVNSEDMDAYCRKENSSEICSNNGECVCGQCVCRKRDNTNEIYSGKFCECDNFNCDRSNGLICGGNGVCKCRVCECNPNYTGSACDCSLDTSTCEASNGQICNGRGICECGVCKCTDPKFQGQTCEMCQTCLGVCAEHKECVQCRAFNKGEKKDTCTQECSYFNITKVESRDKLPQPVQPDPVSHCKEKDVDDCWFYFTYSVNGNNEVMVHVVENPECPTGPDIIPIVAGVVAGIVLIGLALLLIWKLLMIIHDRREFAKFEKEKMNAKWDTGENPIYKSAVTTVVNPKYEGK
substance,measurement,value
Rhinocetin (heterodimeric snaclec from the venom of Bitis gabonica rhinoceros) (complex),percent inhibition of 6F1 antibody binding at 50 μg/ml,65%
same,percent inhibition of 6F1 antibody binding at 100 μg/ml,90%
